Data taken from the DeepSol protein solubility set.

experiment: soluble on expression in E. coli; label from the status in PepcDB or PDB records

| Sequence | soluble on expression in E. coli |
| --- | --- |
| GSKVEDPKDFPSELLSFLSHAVFSNRTLACFAIYTTKEKAALLYKKIMEKYSVTFISRHNSYNHNILFFLTPHRHRVSAINNYAQKLCTFSFLICKGVNKEYLMYSALTRDPFSVIEESLPGGLKEHDFNPESS | soluble |
| MVHIRLSFITFSLILFLVVDMVKIPKSHPRYWSLLYREKIIEGMEKGITAKAGLIAHGRGEAFDYLIGEKTIPPAETAMRAAIAKLLLAKHPVISVNGNVAALVPKETVELAKVLNAKLEINLFYRTEERVKKIAEVLYENGADEVLGINPTKRIPGLESERGKVDENGIWKADVILVPLEDGDRTEALCRMGKFVITVDLNPLSRSARMADITIVDNIVRAYPRMIELAKEMKSLPKEDLEKIVATYDNSKVLSEVLIHIRDRLTKLAEGGIWKKEKLEHHHHHH | not soluble |
| MGSDKIHHHHHHMLFFINLTLKRGLTTLLENANATINPGQKVGLVGKNGCGKSSLFALLKNEMSAEGGEMSFPPNWALAWVNQETPSLDCRAIDYVIQGDREYSRLQQVLQQANTANDGNAIAVLHNQLDAIDAWTIEARAGELLHGLGFTQAELEQPVKAFSGGWRMRLNLAQALICRSDLLLLDEPTNHLDLDAVIWLERWLKQYPGTLILISHDRDFLDPIVGKILHIEQQKLNEYTGDYSSFEQQRATKLAQQNAMYRQQQLKIDHLQRYIDRFKAKATKAKQAQSRIKALERMEKIAPAYVDNPFHFEFREPLSLPNPLLMMENASVGYGEGEKSAVEILSKIKLNLVPGSRIGLLGKNGAGKSTLIKLLAGEIAPTGGTIQLAKGVQLGYFVQHQLDTLRADESALWHLQKIAPQQTEQQLRDYLGGFAFHGDKVNQPVASFSGGEKARLVLALIVWQRPNLLLLDEPTNHLDFRYASGVNGSLGGLSGLFGVGVARSPFIA | not soluble |
| MNGRSLIFSILFVFSELKCDDTDENDQHGTIYQFQAKNIDGKMVSMEKYRDKVVLFTNVASYCGYTDSNYNAFKELDGIYREKGFRVAAFPCNQFEKQEPETEGKILDFVKSSYTYAPDMYSKIEVNGQNTHPLWKFLKKERGSSLSADIPWNFSKFLVDKNGHVVGRYSHSVNPIDLEEEISRLLNS | not soluble |
| MKWHGLPACDSNPNSTTEFCRTRRPTKTMNSPATQTATPTNVDIASIVEQVLRRLRDQTNTNGSTSKPATHAPSAHVLSDKVISVDVIRGIPSGVTQVQLSGGIVTPAARDEMRARGISLAGAESTSAAAIKPASNSGKRFIQLHTDTSSKSIRDALARQLALRGVDHCPRAHRSVIVTKHPATALLGRIQSGARAVLITRLEDIPRFASEIDADTFVLDMQRFNLVALVNAATSIAQLSTSSTSQEAT | not soluble |
| QKRAWITAPVALREGEDLSKKNPIAKIHSDLAEERGLKITYKYTGKGITEPPFGIFVFNKDTGELNVTSILDREETPFFLLTGYALDARGNNVEKPLELRIKVLDINDNEPVFTQD | soluble |
| STFAYIANSESDNISVIDVTSNKVTATIPVGSNPMGAVISPDGTKVYVANAHSNDVSIIDTATNNVIATVPAGSSPQGVAVSPDGKQVYVTNMASSTLSVIDTTSNTVAGTVKTGKSPLGLALSPDGKKLYVTNNGDKTVSVINTVTKAVINTVSVGRSPKGIAVTPDGTKVYVANFDSMSISVIDTVTNSVIDTVKVEAAPSGIAVNPEGTKAYVTNVDKYFNTVSMIDTGTNKITARIPVGPDPAGIAVTPDGKKVYVALSFCNTVSVIDTATNTITATMAVGKNPYASGQFIGSIPVQPVYPSADFKSNITSGYIFLSEPVQFTDLSKDATEWKWDFGDGSSSKKQNPTHTYSETGIYTVRLTVSNSNGTDSQISTVNVVLKGSPTPS | soluble |
| MPIMSIISCKIMQDEIIWILENDSSIDETIIIDSENILEFVEKLDKVNLQYKVLSLEDISSLAEIRSECKNYTVMIHLMELGLHRSPKELKIKVYETIKTLAPFSSGILLFYGLCGNVLGDVEKDFERSSTSCPVRILKDKDHRIVDDCIGATVGGVNNYLRILKSVSDAGTYLFTPMYSKGWRELLDLNKLNKDPSKALKLMKKTHEMIGYKRVAKINTGLEYTENFDASIQEFAELFDFEILEFDDGNQKIFEDCYNELKAELLEHHHHHH | not soluble |
| MNPSLENLQLYPFQKLTKLFEDLVPRDSLPTPIGLHIGEPRHSTPEFIRQELINSLEGLAHYPTVLGTDRLRASIATWLTQRYHLSSIDPDTEVIPVNGSREALFSFAQAVIDTDHKAIQPAVVCQNPFYQIYEGAALLAGATPYFLNQLPENNFSADTAQLPDTVWERTQLVYICSPNNPTGKVLTLDEWKHLFDLSDRYGFVIAADECYSEIYFDEGHPPLGALEAAEKLGRSGFPRLVVFSSLSKRSNVPGMRSGFVAGDATILRKFLLYRTYHGSAMNPAVQAASTVAWSDEQHVAENRKLYYEKFTGAMHILGDTLPVSMPDAGFYLWLRTPVSGIEFSRRLYREGNVTVLPGSYLAREAHGMDPGEDFVRIALVAPVVECMEAMERIRDIARKF | not soluble |
| MGSDKIHHHHHHMSRNTEATEEVGIWTGGRLNYKEGFFTQLPTDELAKGISEEVVRAISAKRNEPEWMLEFRLNAYRAWLDMDEPHWLKAHYDKLNYQDYSYYSAPSCGNCDDSCVSQPGAVQQTGANTFLSKEVEDAFEQLGVPVREGKEVAVDAIFDSVSVATTYREKLAEQGIIFCSFGEAIHDHPDLVRKYLGTVVPGNDNFFAALNAAVASDGTFIYVPKGVRCPMELSTYFRINAEKTGQFERTILVADEGSYVSYIEGCSAPVRDSYQLHAAVVEVIIHKDAEVKYSTVQNWFPGDNNTGGILNFVTKRALCEGENSKMSWTQSETGSAITWKYPSCILRGDNSIGEFYSVALTSGHQQADTGTKMIHIGKNTRSTIISKGISAGHSQNSYRGLVKIMPTATNARNFTQCDSMLIGADCGAHTFPYVECRNNSAQLEHEATTSRIGEDQLFYCLQRGISEEDAISMIVNGFCKDVFSELPLEFAVEAQKLLAISLEHSVG | not soluble |
| MFNGDDDFPMGAMHSFGQMHQQMMSDMNMMTGGMLRNMGMGGPMFGGLMVPSPFGAITDGSGQQPSRRRQELEMNPFAPFGGLLGGLGGMGMMMPPPGQGANMYMSSSVMTIGPDGKPRVEQQTVRRHGDVTETKRRVDKNGESSMSIGHSIGDRSHFIDKKRDREGNVRKQQRFQNLDEASAEAFDREFSSRVRQGYGSGSRSSNLREIDNGLSSSRRSPFGGAGASSSSRRMESRGASRGAPIVTLPEEEETAHSRSSTSHRVGGPLIREISEEEAEQAASSIPKRRRGQQ | not soluble |
| MDINKMTYAVQSALQQAVELSQQHKLQNIEIEAILSAALNESESLYKSILERANIEVDQLNKAYEDKLNTYASVEGDNIQYGQYISQQANQLITKAESYMKEYEDEYISMEHILRSAMDIDQTTKHYINNKVEVIKEIIKKVRGGNHVTSQNPEVNYEALAKYGRDLVEEVRQGKMDPVIGRDEEIRNTIRILSRKTKNNPVLIGEPGVGKTAIVEGLAQRIVKKDVPESLLDKTVFELDLSALVAGAKYRGEFEERLKAVLKEVKESDGRIILFIDEIHMLVGAGKTDGAMDAGNMLKPMLARGELHCIGATTLNEYREYIEKDSALERRFQKVAVSEPDVEDTISILRGLKERYEVYHGVRIQDRALVAAAELSDRYITDRFLPDKAIDLVDQACATIRTEMGSNPTELDQVNRRVMQLEIEESALKNESDNASKQRLQELQEELANEKEKQAALQSRVESEKEKIANLQEKRAQLDESRQALEDAQTNNNLEKAAELQYGTIPQLEKELRELEDNFQDEQGEDTDRMIREVVTDEEIGDIVSQWTGIPVSKLVETEREKLLHLSDILHKRVVGQDKAVDLVSDAVVRARAGIKDPNRPIGSFLFLGPTGVGKTELAKSLAASLFDSEKHMIRIDMSEYMEKHAVSRLIGAPPGYIGHDEGGQLTEAVRRNPYSVILLDEVEKAHTDVFNVLLQILDEGRLTDSKGRSVDFKNTIIIMTSNIGSQVLLENVKETGEITESTEKAVMTSLNAYFKPEILNRMDDIVLFKPLSIDDMSMIVDKILTQLNIRLLEQRISIEVSDDAKAWLGQEAYEPQYGARPLKRFVQRQIETPLARMMIKEGFPEGTTIKVNLNSDNNLTFNVEKIHE | not soluble |
| MSLGSVFRHIEGGMLFPQGSVTCIGAFDGLHLGHRALVRHALQRATALHLPTVALSFEPLPREYFASTTPPPRLTLTRAKIQGLHRFGADSVGLLRFDSRLASMSPQTFVERVLLGRLGVREVLIGPQFRFGHQRSGDIALLQRLGLEHGFTATEIPPLHLNNERISATKIRALLAAGDFAHAAELLGRPYMIGGRVVRGQQLGSTLGYPTANLRFPHPIALSGIYATWVHGIFEQPWPSVSSFGTRPTVAGVEPLLEVHLFDFHSDLYGRRIDVEFIAKLRDEETFPDLHTMTTQIHRDAQQARHILSEHRLRAEGHHHHHH | not soluble |
| MASAIGKNFQSGARECSTFEKIKTELSAAGLSSGAIDGILKIAATYKPKEGEKPDLAQAMVTIGKLFAELETFIKTQPESDQTIYHAIIEKKKAELVAHGIKF | not soluble |
| RAGYWEWNVENGTILIDRQWAVISGYNSADFDMLTMEQWRELCHPADLGVVTKSIEELLDGSMERLELELRVRHKNGEWIRVLDCGKVTGRSK | not soluble |
| MIIVHLCGGLGNQMFQYAAGLAAAHRIGSEVKFDTHWFDATCLHQGLELRRVFGLELPEPSSKDLRKVLGACVHPAVRRLLAGHFLHGLRPKSLVIQPHFHYWTGFEHLPDNVYLEGYWQSERYFSNIADIIRQQFRFVEPLDPHNAALMDEMQSGVSVSLHIRRGDYFNNPQMRRVHGVDLSEYYPAAVATMIEKTNAERFYVFSDDPQWVLEHLKLPVSYTVVDHNRGAASYRDMQLMSACRHHIIANSTFSWWGAWLNPRPDKVVIAPRHWFNVDVFDTRDLYCPGWIVLLEHHHHHH | not soluble |
| MRIVAVTDIHGNMASTVALANILKKIEAELLLIAGDITHFSGGEIAKQILEPLLKLGVRVLAVMGNCDGKDVPKVLDELGINVHNARVEVKKVGVVGFGGSSVTPFSTIWEFSEEEIYSSLKRNYRSGDIVLTHAPPYRTRIDKTFSGIHAGSKGLRKFIEEEQPPICICGHIHEARGIDKIGETLVVNPGPLSRRYYAVIDSETWEVKLERLLEHHHHHH | soluble |
| MGRVTLRITGTQLLCQDEHPSLLAALESHNVEVEYQCREGYCGSCRTRLVAGQVDWITEPLAFIQPGEILPCCCRAKGDIEIEM | not soluble |
| MNKLYIDSFVEKKLTAGVQLLDEKDFSNIKEKNQLVQLVTKSNRPIGTAYISKQNKGIGWYLGPEKIDLSISYFVSLFSVAKAKRQDFAQSDETNAYRLFNQEGDGFGGVTIDLYKDFAVFSWYNAFVYDKKEMIMEAFQQVFPEVKGAYEKCRFKGPDTETAHLYGELAQETFSILENGIAYQVFLNEGLMTGIFLDQHDVRRALVDGLAMGKSLLNLFSYTAAFSVAAAMGGAIETTSVDLAKRSRELSLAHFEHNQLNLASHHFVVMDVFEYFKYAKRKKLIFDVIVIDPPSFARNKKQTFSVSRDYHKLITEALDILSPKGTIIASTNAANMTVSQFKKQIIKGFGSRRPESMTLQQLPSDFTINKADERSNYLKVFTIKVRE | not soluble |
| MKSEETQPFGITIEGVELSDGDVQFADKSLPLPFSTSIHTLSGEVSTLSSDSSEPARVKFEGEVAEYGLAQVNGTVHAWHPTRQTTINVRFRNLQIPEYSPYTVNFAGRKIADGTMDLDLDYTVNEEKLDGQNNLVLHDLKLGEKMESSDAMDLPLDLAIALLQDSDGLEHHHHHH | soluble |
| MIYSIPFLFFIIVSCSNSSTEMVAKSKYDAKIAEYKELNEQQAAVIEDNLEKSKIINNVVTELNQIAGNTHSLRVNVEHGVGELSQAEEINQKLQTLKKRLSAVEGKRSDGSKNLLATMDKLKSIIEQKEIEINNLKQEIANQQQTIANQKNTIASQQVTIDAQSQELMNKQQEMWYKLGTELHSVVEELPKVKGRKDKRNIKNTRYYILNKAKECFEHAAQLGHSLAGSKARQVEGEMSRL | not soluble |
